From article PMC7642358 (Nature Communications, 2020)

Target: SARS-CoV-2 spike receptor-binding domain (2019-nCoV RBD-SD1, residues 319–566) (SARS-CoV-2, UniProt P0DTC2)

Binder	binding result
Sybody 2 (VHH) VHH: QVQLVESGGGLVQAGGSLRLSCAASGFPVSNEEMTWYRQAPGKEREWVAAIASNGNQTEYADSVKGRFTISRDNAKNTVYLQMNSLKPEDTAVYYCYVYVGASYIGQGTQVTVS	binds
Sybody 5 (VHH) VHH: QVQLVESGGGLVQAGGSLRLSCAASGFPVAQQEMTWYRQAPGKEREWVAAISSIGSITHYADSVKGRFTISRDNAKNTVYLQMNSLKPEDTAVYYCYVYVGASYIGQGTQVTVS	binds
Sybody 10 (VHH) VHH: QVQLVESGGGLVQAGGSLRLSCAASGFPVESAEMEWYRQAPGKEREWVAAITSQGTITEYADSVKGRFTISRDNAKNTVYLQMNSLKPEDTAVYYCYVYVGASYIGQGTQVTVS	binds
Sybody 3 (VHH) VHH: QVQLVESGGGLVQAGGSLRLSCAASGFPVSHTEMTWYRQAPGKEREWVAAIESQGVYTHYADSVKGRFTISRDNAKNTVYLQMNSLKPDDTAVYYCYVYVGGGYIGQGTQVTVS	binds
Sybody 11 (VHH) VHH: QVQLVESGGGLVQAGGSLRLSCAASGFPVRTENMHWYRQAPGKEREWVAAIYSFGATMLYADSVKGRFTISRDNAKNTVYLQMNSLKPEDTAVYYCAVNVGEWYEGQGTQVTVS	binds
Sybody 1 (VHH) VHH: QVQLVESGGGLVQAGGSLRLSCAASGFPVNTSEMAWYRQAPGKEREWVAAIESSGDETYYADSVKGRFTISRDNAKNTVYLQMNSLKPEDTAVYYCYVYVGGSYLGQGTQVTVS	binds
Sybody 14 (VHH) VHH: QVQLVESGGGLVQAGGSLRLSCAASGFPVATAEMVWYRQAPGKEREWVAAIMSAGQETEYADSVKGRFTISRDNAKNTVYLQMNSLKPEDTAVYYCYVWVGKSYIGQGTQVTVS	binds
Sybody 4 (VHH) VHH: QVQLVESGGGLVQAGGSLRLSCAASGFPVNGFNMEWYRQAPGKEREWVAAITSEGNYTYYADSVKGRFTISRDNAKNTVYLQMNSLKPEDTAVYYCYVYVGQSYIGQGTQVTVS	binds
Sybody 7 (VHH) VHH: QVQLVESGGGLVQAGGSLRLSCAASGFPVNAEEMEWYRQAPGKEREWVAAISSSGDWTYYADSVKGRFTISRDNAKNTVYLQMNSLKPEDTAVYYCLVYVGSTYIGQGTQVTVS	binds
Sybody 9 (VHH) VHH: QVQLVESGGGLVQAGGSLRLSCAASGFPVGQQHMYWYRQAPGKEREWVAAIYSYGHITKYADSVKGRFTISRDNAKNTVYLQMNSLKPEDTAVYYCWVYVGDYYEGQGTQVTVS	binds
Sybody 13 (VHH) VHH: QVQLVESGGGLVQAGGSLRLSCAASGFPVENYYMRWYRQAPGKEREWVAAIESSGAETRYADSVKGRFTISRDNAKNTVYLQMNSLKPEDTAVYYCYVVVGWGYAGQGTQVTVS	binds
Sybody 15 (VHH) VHH: QVQLVESGGGLVQAGGSLRLSCAASGFPVYEHYMRWYRQAPGKEREWVAAIQSHGNHTAYADSVKGRFTISRDNAKNTVYLQMNSLKPEDTAVYYCFVVVGNGYTGQGTQVTVS	binds
Sybody 6 (VHH) VHH: QVQLVESGGGLVQAGGSLRLSCAASGFPVNHTRMYWYRQAPGKEREWVAAIQSHGQNTFYADSVKGRFTISRDNAKNTVYLQMNSLKPEDTAVYYCYVWVGNQYWGQGTQVTVS	binds
Sybody 8 (VHH) VHH: QVQLVESGGGLVQAGGSLRLSCAASGFPVKSYEMEWYRQAPGKEREWVAAISSYGEYTEYADSVKGRFTISRDNAKNTVYLQMNSLKPEDTAVYYCYVWVGDSYLGQGTQVTVS	binds
